Values quoted from earlier work in publication PMC10875074.

Target: CD155 (poliovirus receptor, Necl-5) (Homo sapiens) (UniProt P15151)
Sequence of UniProt P15151 (P15151 21-343): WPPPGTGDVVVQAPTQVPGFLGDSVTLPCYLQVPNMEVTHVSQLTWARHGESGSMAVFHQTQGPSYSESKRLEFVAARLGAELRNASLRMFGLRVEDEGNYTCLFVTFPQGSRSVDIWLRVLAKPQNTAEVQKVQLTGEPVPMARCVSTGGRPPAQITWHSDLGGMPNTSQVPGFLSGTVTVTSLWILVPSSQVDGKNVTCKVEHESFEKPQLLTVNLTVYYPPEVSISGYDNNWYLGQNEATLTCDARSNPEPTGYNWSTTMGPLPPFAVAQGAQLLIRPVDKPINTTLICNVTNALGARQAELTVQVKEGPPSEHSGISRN

Substance: TIGIT (from UniProt Q495A1)
- Kd: 2 nM
